The values below come from the supplement of paper PMC12042874.

± gives the uncertainty stated by the source.

This data set can be described thus: amyloid nucleation score (Sup35N fusion, yeast selection) (log enrichment); library NNK3; higher = more nucleation; inactive = no reads after selection. Summed up:
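On medium lacking adenine and uracil, psi-negative yeast expressing peptides of 20 random codons fused to Sup35N were grown 7 days at 30°C after a 24-hour induction with 100 μM copper sulfate. Illumina sequencing of input and output plasmid inserts gave the reads, and sequences under 100 input reads were excluded. The nucleation score is the DiMSum log enrichment of output over input reads, centred on the mode score of non-aggregating sequences.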
FRSVVWFCGRVLQTGCCGLN: the amyloid nucleation score entry was “inactive”.

With MKIGETYDLTSINPAAWNVR, the amyloid nucleation score result is “inactive”.

With RFISEYCMFENKEMVEPSFG, the amyloid nucleation score entry was “inactive”.

For LARWNVIWFFNGNCIFEESV, the amyloid nucleation score came to 1.31 ± 0.074.

GWRRPNSYDLEAEFMRKSGG: the amyloid nucleation score result is “inactive”.

Take IGFFEFIKELITWKILS: the amyloid nucleation score result is “inactive”.

As to YYFRRWGHS, the amyloid nucleation score result was “inactive”.

As for VLACSHWLMLSRTKYMMRIV, the amyloid nucleation score result is “inactive”.

As to GLFCLKFKPTQGVPRQKLL, the amyloid nucleation score result was “inactive”.

For TMSRRAARMQCAILVPSRLL, the amyloid nucleation score result was “inactive”.

Turning to RDIVVNRLVRACSLGFLCLG, the amyloid nucleation score is -0.792 ± 1.4.

Take ENYLSPTSKMTMIWGCILWW: the amyloid nucleation score result is “inactive”.

LSRYSRSTIILEHWCDTDWY displayed an amyloid nucleation score of 0.812 ± 0.24.

REASVECH: the amyloid nucleation score entry was “inactive”.

Turning to GVFAIGANLQANVGNDRAYT, the amyloid nucleation score result is “inactive”.

As to TTRRSTYGFEIKYILIVFVH, the amyloid nucleation score result was “inactive”.

The substance YLNPAFELFKRMSNRFFVLA displayed an amyloid nucleation score of -1.02 ± 1.9.

Take RVSNGPIIYRRMHAAGDNLT: the amyloid nucleation score result was “inactive”.

In turn, WNSHQREEYTVDCYVVSVKL displayed an amyloid nucleation score of -0.023 ± 0.6.

Regarding SNNLEGVLSVCDFVF, the amyloid nucleation score result was “inactive”.

On to VVLVFLRVTRYPSQKMVSAL, for which the amyloid nucleation score entry is “inactive”.

For LWFMDFMQSSNSEYQPIVGL, the amyloid nucleation score entry was “inactive”.

For WSSWSRS, the amyloid nucleation score result is “inactive”.

RHNISFT: the amyloid nucleation score entry is “inactive”.

On to MESRGALYLSFRGRNCSSTQ, for which the amyloid nucleation score was found to be 0.371 ± 0.19.

As to SMKGNSWF, the amyloid nucleation score entry is “inactive”.

Take FIIVPKWSCFLVSSMKFRVV: the amyloid nucleation score result is “inactive”.

On to AVYCPINLLAF, for which the amyloid nucleation score entry is “inactive”.

As for DIVCNFVT, the amyloid nucleation score entry was “inactive”.

On to YWLSPDKICTYYLVWVRRAP, for which the amyloid nucleation score result is “inactive”.

For LSLFVGGAEGWVKGDPASEG, the amyloid nucleation score is 0.507 ± 0.25.

On to NDGPKVARMGSVR, for which the amyloid nucleation score result is “inactive”.

For FANYGEKIWCFGAMLGKRLS, the amyloid nucleation score result was “inactive”.

Consider VDIVRVSCEALSLATDCQFL, for which the amyloid nucleation score result was “inactive”.

For CFGRSGPW, the amyloid nucleation score result was “inactive”.

As for KVNAFTCTKSFGLCVSESFT, the amyloid nucleation score entry is “inactive”.

On to RRRLIR, for which the amyloid nucleation score entry was “inactive”.

Regarding STETYWYSHLIINLVGSWF, the amyloid nucleation score result is “inactive”.

Turning to FNSKTLKLTFFMVVPEYCWW, the amyloid nucleation score entry was “inactive”.

In turn, NNSSSMSLINKSTCCLDWSS registered an amyloid nucleation score of 2.02 ± 0.063.

For FNANINNNGIRFRREVNLCW, the amyloid nucleation score entry was “inactive”.

In the case of CSLVSYSSLLGTCVDGIRDR, the amyloid nucleation score result was “inactive”.

In the case of SLSFIECLMELNNLVYYLGS, the amyloid nucleation score entry was “inactive”.

With FRSGSIDCSKLWILFY, the amyloid nucleation score result is “inactive”.

On to PYCNRWFSDRGSWDVHRSWV, for which the amyloid nucleation score result is “inactive”.

For RRYIRSVNCKQWDYKFLMYS, the amyloid nucleation score entry is “inactive”.

On to KERVNRSLTYTVFSS, for which the amyloid nucleation score result is “inactive”.

For the substance LIWQGCV, the amyloid nucleation score result is “inactive”.

Consider GCFILLNWVMQGKLAYTSLI, for which the amyloid nucleation score result was “inactive”.

Turning to ESWCM, the amyloid nucleation score entry is “inactive”.

With CCRFAVLRRLERSDQKGVWI, the amyloid nucleation score result is “inactive”.

Turning to ASCQSSIVFRTGSSLATLCD, the amyloid nucleation score result was “inactive”.

Regarding YDLRIYSKRVDPF, the amyloid nucleation score entry is “inactive”.

On to QYEWLNYSNLVVYSIKYPEN, for which the amyloid nucleation score result is “inactive”.

In the case of PNVLLIRVLIERSCKVGWNS, the amyloid nucleation score result was “inactive”.

For the substance SLSVVMLLKVVVRPSNWWEG, the amyloid nucleation score result is “inactive”.

For SYVAVPR, the amyloid nucleation score entry is “inactive”.

Turning to LSLLVTLG, the amyloid nucleation score entry was “inactive”.

On to DPRRGIPIKPQMINTVQM, for which the amyloid nucleation score entry was “inactive”.

Turning to YKVGRSHCGKKSEDLP, the amyloid nucleation score entry is “inactive”.

On to DVAYFNAFY, for which the amyloid nucleation score entry was “inactive”.

SRTSYYMPTIPCMMPMN: the amyloid nucleation score entry was “inactive”.

ADLATYLTDLTERDAILSPP: the amyloid nucleation score is 0.424 ± 0.39.

For SDVKSS, the amyloid nucleation score entry was “inactive”.

On to DRVSANLTFLSS, for which the amyloid nucleation score entry is “inactive”.

As to IIMLTFQVNVTFASVWRTRS, the amyloid nucleation score entry is “inactive”.

On to RLLLMSRSLMIRFVLSLVLE, for which the amyloid nucleation score result was “inactive”.

Turning to ALRGWILWW, the amyloid nucleation score entry was “inactive”.

As to SWPVCWDHIWQSWGLTTSAV, the amyloid nucleation score entry is “inactive”.

LLGWCCSDNPDRRKEY: the amyloid nucleation score result is “inactive”.

STNMFVCDGRTPTNYWLGIR registered an amyloid nucleation score of 1.42 ± 0.14.

In the case of LNDDLCSRVFWVYEYHECQV, the amyloid nucleation score entry was “inactive”.

The substance ILIWRSGCYWTSPTEGVFRF registered an amyloid nucleation score of 0.572 ± 0.2.

In the case of ARTGYNGYQFRSGRALEITG, the amyloid nucleation score result was “inactive”.

For VSEFRRVYFSAQFSRVGNSC, the amyloid nucleation score result is “inactive”.

The substance RQDLSHSFSDGRERQHWAKR returned an amyloid nucleation score of -0.165 ± 0.81.

In the case of FTWRRFRVKSYYDYFASLGV, the amyloid nucleation score entry is “inactive”.

In the case of MDNLCGVVFCGSWSVVYSAR, the amyloid nucleation score worked out at 3.35 ± 0.06.

Consider HMWLFKIQDLMLAHPITGSW, for which the amyloid nucleation score result is “inactive”.

Turning to MIRRKRNAYMR, the amyloid nucleation score result was “inactive”.

As to WFLVVVTFGWSIGQGQVGA, the amyloid nucleation score is -0.527 ± 1.1.

Consider PLGERRTPSYPVASLP, for which the amyloid nucleation score is -0.223 ± 0.88.

As for GEWSNLSNCTVNNVSRSGCS, the amyloid nucleation score entry was “inactive”.

Consider GYVTCDLL, for which the amyloid nucleation score was 1.1 ± 0.11.

For EKKCIQRRFFYSVFNLMLSF, the amyloid nucleation score was -0.714 ± 1.

In the case of GSATVMIWQR, the amyloid nucleation score entry is “inactive”.

Regarding KDNTYVIFFYYLFVFVRTFL, the amyloid nucleation score entry is “inactive”.

For the substance MLNWPIDRDSWRPGFDMWLG, the amyloid nucleation score was -0.426 ± 0.6.

For FFVLGRSTMSWLR, the amyloid nucleation score result is “inactive”.

Consider VLVVPKQVTWEVGF, for which the amyloid nucleation score entry is “inactive”.

On to LILVCSSGRAIMKRAPCKFR, for which the amyloid nucleation score result is “inactive”.

With FAKFAKSYNRPITVVLANCS, the amyloid nucleation score entry is “inactive”.

Take SFLPTV: the amyloid nucleation score was found to be 0.93 ± 0.23.

On to LLLYLN, for which the amyloid nucleation score result was “inactive”.

For the substance WFSPRDVNYSREVFKANTLT, the amyloid nucleation score entry is “inactive”.

With HCSCDGAIRYDILQSNHKE, the amyloid nucleation score entry is “inactive”.

On to YNDFCN, for which the amyloid nucleation score turned out to be 0.194 ± 0.27.

Substance RFGALVTLVFVCYHWNRPTA had an amyloid nucleation score of 0.753 ± 0.16.

Turning to SLSLSIIRAVDFWDMVRGLN, the amyloid nucleation score entry is “inactive”.

With LYVFLLNECSWRAPGASI, the amyloid nucleation score result is “inactive”.

Consider AYNFEHFPDETSAQGHVY, for which the amyloid nucleation score result is “inactive”.

For SPDTARTH, the amyloid nucleation score entry was “inactive”.

For the substance YCFDI, the amyloid nucleation score result is “inactive”.

For LNYVVTHLYLVLFHVMVSDG, the amyloid nucleation score entry is “inactive”.

For SERWGIESHNRNSNMRKTGW, the amyloid nucleation score entry was “inactive”.

With GSNFICTFRVGKGYRPVCLE, the amyloid nucleation score result is “inactive”.

Turning to ASSLMQ, the amyloid nucleation score entry is “inactive”.

Turning to SAFTFPTLWIFTNPTVHLLF, the amyloid nucleation score entry is “inactive”.

SMLVELVFSLQTQSSGSSGR: the amyloid nucleation score was -0.059 ± 0.43.

In the case of NAFNL, the amyloid nucleation score result was “inactive”.

Take RVKSKDANSGGSMVCASRVL: the amyloid nucleation score result is “inactive”.

On to FVAHCWQSIY, for which the amyloid nucleation score result was “inactive”.

Consider FYVLHPCAPFVFPHQTTNIT, for which the amyloid nucleation score result is “inactive”.

As to ISYNTVRYRYGFVYNRLLPW, the amyloid nucleation score entry was “inactive”.

As for SSGPLALVL, the amyloid nucleation score entry is “inactive”.

As for WYNNYFRQVPSCVKDGRSHP, the amyloid nucleation score entry is “inactive”.

As to KLVYFRVFKSRFRSRVGGMV, the amyloid nucleation score entry is “inactive”.

KIQTNCNFTC: the amyloid nucleation score stood at 2.5 ± 0.067.

SSYLNYIFSMTLECIYGC returned an amyloid nucleation score of -0.272 ± 0.47.

In turn, YCCSGMWVMRSVHSHEIGYL yielded an amyloid nucleation score of 0.966 ± 0.18.

Turning to WELSRYVRGLLFEFTLCLFV, the amyloid nucleation score result was “inactive”.

With SYVVSQPFSHRYWESLTMAL, the amyloid nucleation score result is “inactive”.

In the case of FFANKYSLFAVVTMLANFLY, the amyloid nucleation score entry was “inactive”.

Consider CLRMGYVLRSRWERLDCLKW, for which the amyloid nucleation score entry is “inactive”.

On to YVSSRNRHYGSPYLGVCVFK, for which the amyloid nucleation score entry was “inactive”.

On to SKSQSSHHDSYSLWTM, for which the amyloid nucleation score entry was “inactive”.

Turning to VTVQLCSNLIMGTWRTRNVL, the amyloid nucleation score entry was “inactive”.

For the substance DVNLRTSHYAF, the amyloid nucleation score result was “inactive”.

Regarding PVRIEYQ, the amyloid nucleation score result is “inactive”.

Turning to TGYLAMWLY, the amyloid nucleation score entry is “inactive”.

Consider RSDSWLIYSSPINMM, for which the amyloid nucleation score entry was “inactive”.
